In the DeepSol protein solubility set:

Test: soluble on expression in E. coli; label from the status in PepcDB or PDB records

Row | Sequence | soluble on expression in E. coli
1 | MSQATARHSVTSSPVSTGQLEEPISRLRVPTEDELPQKLRDIHMRIRKKFGFVPNFLTALSANPGTALRIMAFYEHLFDQSNSHLSASERELIAVVTSVATGCSYCVFNHRPALAAALGDRVLADRIARNHNDVTLAPRERALADLAQKLAATPHSVGSDDFARLRAIGFSEPAILEVLEVSAFFSYGNRLTIALNVLPDPQFFVSAMAGDPLEHHHHHH | not soluble
2 | MQKIDLGNNESLVCGVFPNQDGTFTAMTYTKSKTFKTETGARRWLEKHTVS | soluble
3 | MNYKADIGVFGGSGFYSFLENVEEIEMETPYGKPSDKIAIATYEGKRIAFLPRHGKNHQFPPHMIPYRANLYAMKKLGVKKILAPTSSGSLRADIKPGDFVICDQFVDRTTGRKDTFYDGPVTKHISSAHPYCPELRKIAIQVGKDLGITTHEKGTVVVIQGPRFSTVAESRWFSKMGWDVINMTQYPEVYLARELGICYANIALITDYDAGLEGRDDIEPVTEEAVLKVFAENNEKVKNMLFEVIKRIDLENSNCTCCNVDLSGLDL | soluble
4 | MARQKDTFYFEGFRRSADYACQAAKLLSEVMHDFNPGQLRERMDSMHAIEKSADEVRHDMMDELVTAFITPFDREDIDELGHVLDDVTDSIEGVLNRMYYDNVTDMRDDAVQMSDMVVRATESICELVNELPRFRHSKTLRELVFAINTIETDADHLFIESMRTLHTTCTDPLQVFAWHDVYRHLEQCSDDCERVANTIDSIVMKNSLEHHHHHH | soluble
5 | MSLYNFLGKELKSPLIIGSGPLTYSAAGCKILSDAGAGAVVTKTIRKERAINPAPHMVRNTANALLNNEKWTDFEPEQWIDFEIPQMKRDGTVCIASIGHTIEESSELVEKVANAGADFIELVSYDYRDLIPMLKDAKERVNIPVIVKLPPMIDEIGDFAKKLEEAGADAITACDSVGPAFRIDIETGQPLLGGNGIGYLSGETIKPITLQRIYEIKKQVNIPIIGLGGCVSGDDALEMIMAGADFVGICSVVILKGAQVISKIHDDLKSNLNRLGYNTIENACGIVHNHMGDVNEREGHHHHHH | soluble
6 | MAHHHHHHMSGENIKNLLAPQPTVDQGPYSGKYEKRMVDLPKPTYSTFYNKNKEFDSTHPRYFKQRDAVIGPIVNDTVDPKNFLRTGQGIKHIVPPVPHKKQHRKDFLDCGDIRKRTQGAMEPADQQQKESSGMGGMGSLANTNGVGGQAGDGIREHDMSSNDPERKGEQANGGDTGLRGTGNVESAVGSCDNKNNFQGAATGDNGRCHLNSLDRSRCKKDFVTSNIIDVDNMVPKRRKDQPEDPTRRKTFGRVPGYIGRVKEVIEKERMQLKAIGEARTNNRLERVGKFVYRLDEQERLNMISKLRAKLTEKGAELNRMPFAKDTYIQMKRKSDLEKRIKEIESSLEKLEKDAVFIYSDDPRVVHWTKDAAFEEARLFASD | not soluble
7 | MSLGRHSDNSLQESANHTVLLTSPTNTIPKDSRQRSQQFMQNLQDEICTALEQLDGKASFHQDHWERAEGGEGRTRVIREGRVFEQGGVNFSAVWGNSLPASILAQRPEAAGHEFFATGTSMVLHPRNPYVPTVHLNYRYFEAGPIWWFGGGADLTPYYAFKEDAVHFHQTLKNACDVHNPEYYPTFKRWCDEYFYLRHREEQRGIGGIFFDYQDASGKLYVESQTDSSVAIYSQKVGNVARNWEDIFAFVQSCGQAFLPAYLPIVERRQGIEYGDRQRNFQLYRRGRYVEFNLVYDRGTVFGLQTKGRTESILMSLPPLARWEYCYEPEAGSPEAELTEVFLQPRDWVEGHHHHHH | not soluble
8 | VFGYVTEDGDTALHLAVIHQHEPFLDFLLGFSAGHEYLDLQNDLGQTALHLAAILGEASTVEKLYAAGAGVLVAERGGHTALHLACRVRAHTCACVLLQPRPSHPRDASDTYLTQSQDCTPDTSHAPAAVDSQPNPENEEEPRDEDWRLQLEAENYDGHTPLHVAVIHKDAEMVRLLRDAGADLNKPEPTCGRTPLHLAVEAQAASVLELLLKAGADPTARMYGGRTPLGSALLRPNPILARLLRAHGAPEPEDGGDKLSPCEEEGEDEDSDNRDEGDEYDD | soluble
9 | MGSDKIHHHHHHMANKNLYGGNPERGWCMVLPGFFSEDIRVDNHAANGRSSKSFISEGRWAKVISQVKKGDYVFIQFGHNDEKADSARHTDPGTTFDDNLRRFVNETRVKGGIPVLFNSIVRRNFVQPEDASIATDARRAPGEQELPKEVNVLYDTHGAYLDSPRNVAKEMGVAFIDMNKITHDLVQGLGPAESKKLFMFVEPEKVPAFPKGREDNTHLNVYGARTIAGLTVDAIAKEIPELAKYVRHYDYVVAQDGTGDFFTVQEAINAVPDFRKNVRTTILVRKGTYKEKIIIPESKINISLIGEDGVVLTNDDFANKKNVFGENMGTSGSSSCYIYAPDFYAENITFENSAGPVGQAVACFVSADRAFFKNCRFLGYQDTLYTYGKHSRQYYEDCYIEGTVDFIFGWSVAVFNRCHIHSKRDGYVTAPSTDQGKKYGYVFYDCRLTADPDVAKVYLSRPWRPYAQAVFIRCELGKHILPEGWHNWGKKEAEKTVFYAEYDSHGEGANPKARAAFSRQLKNLKGYEMETVLAGEDGWNPLKNDSVK | not soluble
10 | MSELLTTYRPIKILLQLDPNLGNNSYNGRVKIDYEFTGETSEIKIQTSRDFQWTSVRLATFYDFNEGCPVYASVDCENYVHDAESEILTLPLGNPLTPETTENGFYIELEWTGPINPQGETTGLYAIDESTIEANMKDGNAHKVFPCYEGGVSAKFWLTVITDERTRVETNMDDAGHEEFEGRVKNNFLKEEELTIEDVYIYVTPIIDME | not soluble
11 | MGSDKIHHHHHHMMQALKIDEEIWQMFPEARFEVLVVKGINNQSKADEYYQELLDRAIEKSQKYIANDVFRDNPVVSEWRTAFTKFKKKKGARASIEALLKRVSQGKSLSPINPLVDIYNSISLEYGVPCGGEDLQKMDGTMHLGVAKGGESFRPLGSDEDEPALPGEVIYYDATGAICRCFNWREAQRTMLTEDTTDAVMVIEAINADQAQRAKSAIEKLKELVESKLNATGEHFTLQAQ | not soluble
12 | MGSDKIHHHHHHMKLKYVLYMAAALSLTGCNDSFLERGPQNLNDQSFWISVNDLKAYANAFYGLIPGGVSVLDDTDSDIQVPNDINSFLWGQYVVPTEGGVWQKSNWQNIRNINYFMTHYQSVQAAEADVNIYVAEMRFFRALEYFNKIQLLGDVPWLEVDLNVDSEELYGPKMKRNQVFQKIIEDLDFAIQWLPEAGSEEANRLNKDIARHVKARFCLNEGTHYKYHDELEYASEAEKWLQMAATESDKLITSGRYEIYNTGHPQEDYFNMYRIDDKSDLKEAVLYVDYKTNIREHNMAAAGREAGCGFSKSFVESFLCSDGLPISLSNKYLGDETMRKETANRDPRLKQLILTNDFPTNVTDDLKDSTFVVNEDEFITQHCFTGYRPIKGFNPIYSQALYMKSSFDGIAYRYAETLLINAEAKAELNTITNADLDRTVNQLRDRVGMPHLTVM | not soluble
13 | MQKDALNNVRITDEQVLMTPEQLKAAFPLSLAQEAQIAQSRGIISDIIAGRDPRLLVVCGPCSIHDPETALEYARRFKALAAEVSDSLYLVMRVYFEKPRTTVGWKGLINDPHMDGSFDVEAGLKIARQLLVELVNMGLPLATEALDPNSPQYLGDLFSWSAIGARTTESQTHREMASGLSMPVGFKNGTDGSLATAINAMRAAAQPHRFVGINQAGQVALLQTQGNPHGHVILRGGKAPNYSPADVAQCEKEMEQAGLRPSLMVDCSHGNSNKDYRRQPAVAESVVAQIKDGNRSIIGLMIESNIHEGNQSSEQPRSEMKYGVSVTDACISWEMTDALLREIHKDLSGQLAVRVA | not soluble
14 | SLLDVAVSPDDRFILTADRDEKIRVSWAAAPHSIESFCLGHTEFVSRISVVPTQPGLLLSSSGDGTLRLWEYRSGRQLHCCHLASLQELVDPQAPQKFAASRIAFWCQENCVALLCDGTSVVYIFQLDARRQQLVYRQQLAFQHQVWDVAFEETQGLWVLQDCQEAPLVLYRPVGDQWQSVPESTVLKKVSGVLRGNWAMLEGSAGADASFSSLYKATFDNVTSYLKKKEERLQQQLEKKQRRRSPPPGPDGHAKKMRPGEATLSC | soluble
15 | MSLKILGIETSCDETGVAIYDEEKGLIANQLYTQIALHADYGGVVPELASRDHIRKTAPLIKAALEEANLTASDIDGIAYTSGPGLVGALLVGATIARSLAYAWNVPAIGVHHMEGHLLAPMLDDNSPHFPFVALLVSGGHTQLVRVDGVGKYEVIGESIDDAAGEAFDKTAKLLGLDYPGGAALSRLAEKGTPNRFTFPRPMTDRAGLDFSFSGLKTFAANTVNQAIKNEGELIEQTKADIAYAFQDAVVDTLAIKCKRALKETGYKRLVIAGGVSANKKLRETLAHLMQNLGGEVFYPQPQFCTDNGAMIAYTGFLRLKQGQHSDLAIDVKPRWAMAELPAIEGHHHHHH | soluble
